One block for each substance: values may come before it.
Tests used:
mouse CD3ε (mouse) = mouse CD3ε (mouse) (UniProt P22646); experiment: cell-based or functional assay
[1] = molecular target: VSV8/Kb complex (vesicular stomatitis virus; mouse) (UniProt P01887); experiment: cell-based or functional assay
[2] = molecular target: activated thymic caspase (~17 kD subunit) of VSV8-triggered N15 TCRtg RAG-2-/- H-2b mouse thymocytes (mouse); experiment: cell-based or functional assay
[3] = molecular target: activated thymic caspase (~17 kD subunit) of VSV8-triggered N15 TCRtg RAG-2-/- H-2b mouse thymocytes (mouse); experiment: preincubation with zVADfmk, competitor biotin-DEVDamk, thymic lysate, streptavidin-HRP blot

percent DP thymocytes in C57BL/6 FTOC after 18 hours with 200 mg/ml 2C11 mAb (FACS) (mouse CD3ε (mouse)): 37%
Substance: anti-CD3ε specific hamster anti-mouse mAb 145-2C11 (antibody)

Substance: N15 TCR
TdT positive cells per mm2 (TUNEL), FTOC N15tg #1, VSV8 (TdT positive cells / mm2) [1]: 429 | TdT positive cells per mm2 (TUNEL), FTOC N15tg #2, VSV8 (TdT positive cells / mm2) [1]: 456 | TdT positive cells per mm2 (TUNEL), FTOC N15tg #3, VSV8 (TdT positive cells / mm2) [1]: 441

TdT positive cells per mm2 (TUNEL), FTOC N15tg #1, zVADmk + VSV8 (TdT positive cells / mm2) [2]: 360 | TdT positive cells per mm2 (TUNEL), FTOC N15tg #2, zVADmk + VSV8 (TdT positive cells / mm2) [2]: 525 | TdT positive cells per mm2 (TUNEL), FTOC N15tg #3, zVADmk + VSV8 (TdT positive cells / mm2) [2]: 461
Substance: N-(Z-Valinylalanyl)aspartic acid methyl ketone, b-methyl ester (peptide)

TdT positive cells per mm2 (TUNEL), FTOC N15tg #1, zVADfmk + VSV8 (TdT positive cells / mm2) [2]: 6 | TdT positive cells per mm2 (TUNEL), FTOC N15tg #2, zVADfmk + VSV8 (TdT positive cells / mm2) [2]: 1 | TdT positive cells per mm2 (TUNEL), FTOC N15tg #3, zVADfmk + VSV8 (TdT positive cells / mm2) [2]: 2 | molar excess over biotin-DEVDamk at which the ~17 kD band is no longer detectable [3]: 100 to 1000 fold
Substance: N-benzyloxycarbonyl-Val-Ala-Asp(OMe)-fluoromethylketone (peptide)

— patent US7247438
